# Biological target: HLA-A*02:01 (Homo sapiens, UniProt P04439, D140Y/D185E/D98H/E176V/E277Q/G131W/G231S/I119V/I121R/I166T/I218V/L300P/L318F/N151K/N90K/P208A/P217A/Q86G/Q94H/R138H/R169H/T345S)
# Experiment: MHC binding assay: UV-ligand exchange with beta2m ELISA (exchange yield)
# Details: binding to HLA-A*02:01, β2m ELISA
# How it was run: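 Exchange yield reflects how much β2m remains bound, measured by ELISA: streptavidin capture of 100-fold diluted monomers, HRP anti-β2m at 37° C. for 1 h, TMB read at 450 nm. Monomers come from UV cleavage of a conditional HLA-A*02:01 ligand in the presence of the candidate peptide.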
row,"Peptide exchange (MHC class I binding score, peptide exchange yield)",Substance
1,“+++” (≥50 = +++),591 (SMAELDIKL; listed as Homo sapiens) [compound 591]
2,“+++” (≥50 = +++),592 (RLLSAAENFL; listed as Homo sapiens) [compound 592]
3,“+++” (≥50 = +++),593 (GLPRFGIEMV; listed as Homo sapiens) [compound 593]
4,“+++” (≥50 = +++),594 (IMLKGDNITL; listed as Homo sapiens) [compound 594]
5,“+++” (≥50 = +++),595 (VLLSIYPRV; listed as Homo sapiens) [compound 595]
6,“+++” (≥50 = +++),596 (ALLDQTKTLAESAL; listed as Homo sapiens) [compound 596]
7,“+++” (≥50 = +++),597 (KLLEGQVIQL; listed as Homo sapiens) [compound 597]
8,“+++” (≥50 = +++),598 (FLFPHSVLV; listed as Homo sapiens) [compound 598]
9,“+++” (≥50 = +++),599 (YLLNDASLISV; listed as Homo sapiens) [compound 599]
10,“+++” (≥50 = +++),600 (ALAAPDIVPAL; listed as Homo sapiens) [compound 600]
11,“+++” (≥50 = +++),601 (SAFPFPVTV; listed as Homo sapiens) [compound 601]
12,“++++” (≥75% = ++++),602 (YLLEQIKLIEV; listed as Homo sapiens) [compound 602]
13,“+++” (≥50 = +++),604 (SILDRDDIFV; listed as Homo sapiens) [compound 604]
14,“+++” (≥50 = +++),605 (KLYEAVPQL; listed as Homo sapiens) [compound 605]
15,“+++” (≥50 = +++),606 (ALWETEVYI; listed as Homo sapiens) [compound 606]
16,“+++” (≥50 = +++),607 (RLYSGISGLEL; listed as Homo sapiens) [compound 607]
17,“+++” (≥50 = +++),608 (SLLSVSHAL; listed as Homo sapiens) [compound 608]

row,"Peptide exchange (MHC class I binding score, peptide exchange yield)",Substance
1,“+++” (≥50 = +++),609 (ALWKQLLEL; listed as Homo sapiens) [compound 609]
2,“+++” (≥50 = +++),610 (LLAPTPYIIGV; listed as Homo sapiens) [compound 610]
3,“++++” (≥75% = ++++),611 (YLLDDGTLVV; listed as Homo sapiens) [compound 611]
4,“+++” (≥50 = +++),612 (YLYNEGLSV; listed as Homo sapiens) [compound 612]
5,“+++” (≥50 = +++),613 (RLLPPGAVVAV; listed as Homo sapiens) [compound 613]
6,“+++” (≥50 = +++),614 (LLLPDQPPYHL; listed as Homo sapiens) [compound 614]
7,“++” (≥20% = ++),615 (VLPPDTDPA; listed as Homo sapiens) [compound 615]
8,“+++” (≥50 = +++),616 (VLIDEVESL; listed as Homo sapiens) [compound 616]
9,“+++” (≥50 = +++),617 (ALMYESEKVGV; listed as Homo sapiens) [compound 617]
10,“+++” (≥50 = +++),618 (VLFDSESIGIYV; listed as Homo sapiens) [compound 618]
11,“+++” (≥50 = +++),619 (ALQDRVPLA; listed as Homo sapiens) [compound 619]
12,“++++” (≥75% = ++++),620 (KLLNKIYEA; listed as Homo sapiens) [compound 620]
13,“++++” (≥75% = ++++),621 (VLMDRLPSLL; listed as Homo sapiens) [compound 621]
14,“+++” (≥50 = +++),622 (RLLGEEVVRVLQA; listed as Homo sapiens) [compound 622]
15,“+++” (≥50 = +++),623 (YLVEDIQHI; listed as Homo sapiens) [compound 623]
16,“+++” (≥50 = +++),635 (SLDSTLHAV; listed as Homo sapiens) [compound 635]

# More lines, now with the values behind:
row,Substance,"Peptide exchange (MHC class I binding score, peptide exchange yield)"
1,565 (ALQETPTSV; listed as Homo sapiens) [compound 565],“++” (≥20% = ++)
2,566 (VIADGGIQNV; listed as Homo sapiens) [compound 566],“++” (≥20% = ++)
3,567 (SLLPLDDIVRV; listed as Homo sapiens) [compound 567],“+++” (≥50 = +++)
4,568 (TLYDIAHTPGV; listed as Homo sapiens) [compound 568],“++++” (≥75% = ++++)
5,569 (KLVDRTWTL; listed as Homo sapiens) [compound 569],“+++” (≥50 = +++)
6,570 (ALANQIPTV; listed as Homo sapiens) [compound 570],“++” (≥20% = ++)
7,571 (LLLTTIPQI; listed as Homo sapiens) [compound 571],“+++” (≥50 = +++)
8,572 (ALADLIEKELSV; listed as Homo sapiens) [compound 572],“+++” (≥50 = +++)
9,573 (ILVANAIVGV; listed as Homo sapiens) [compound 573],“+++” (≥50 = +++)
10,574 (YLLQEPPRTV; listed as Homo sapiens) [compound 574],“++” (≥20% = ++)
11,575 (YLISQVEGHQV; listed as Homo sapiens) [compound 575],“+++” (≥50 = +++)
12,576 (ILLNNSGQIKL; listed as Homo sapiens) [compound 576],“++++” (≥75% = ++++)
13,577 (VMFEDGVLMRL; listed as Homo sapiens) [compound 577],“+++” (≥50 = +++)
14,578 (FLDPGGPMMKL; listed as Homo sapiens) [compound 578],“+++” (≥50 = +++)
15,579 (NLMEMVAQL; listed as Homo sapiens) [compound 579],“++” (≥20% = ++)
16,580 (LLMENAERV; listed as Homo sapiens) [compound 580],“++” (≥20% = ++)
17,582 (TLCDVILMV; listed as Homo sapiens) [compound 582],“+++” (≥50 = +++)
18,583 (ILANDGVLLAA; listed as Homo sapiens) [compound 583],“+++” (≥50 = +++)
19,584 (ALAEVAAMENV; listed as Homo sapiens) [compound 584],“+++” (≥50 = +++)
20,585 (ALWDLAADKQTL; listed as Homo sapiens) [compound 585],“++++” (≥75% = ++++)
21,586 (KLKPGDLVGV; listed as Homo sapiens) [compound 586],“+++” (≥50 = +++)
22,587 (VMNDRLYAI; listed as Homo sapiens) [compound 587],“+++” (≥50 = +++)
23,588 (SLLPLSHLV; listed as Homo sapiens) [compound 588],“+++” (≥50 = +++)
24,589 (KLYPQLPAEI; listed as Homo sapiens) [compound 589],“+++” (≥50 = +++)
25,590 (SLIEKLWQT; listed as Homo sapiens) [compound 590],“++” (≥20% = ++)
